Measured values as given in patent publication US20250263483A1 (TRUSTEES OF COLUMBIA UNIVERSITY IN THE CITY OF NEW YORK, published 2025).
One block for each binder: values may come before it.

Columns and labels:
[1] = molecular target: T1, mouse PAG, endogenous on wild-type C57BL6 splenocytes (mouse, UniProt Q3U1F9 1-429); assay: flow cytometry, non-permeabilized WT vs PAG KO mouse splenocytes (FIG. 2B)
T1 construct: whole, on cells; also called murine PAG
T1 sequence (looked up): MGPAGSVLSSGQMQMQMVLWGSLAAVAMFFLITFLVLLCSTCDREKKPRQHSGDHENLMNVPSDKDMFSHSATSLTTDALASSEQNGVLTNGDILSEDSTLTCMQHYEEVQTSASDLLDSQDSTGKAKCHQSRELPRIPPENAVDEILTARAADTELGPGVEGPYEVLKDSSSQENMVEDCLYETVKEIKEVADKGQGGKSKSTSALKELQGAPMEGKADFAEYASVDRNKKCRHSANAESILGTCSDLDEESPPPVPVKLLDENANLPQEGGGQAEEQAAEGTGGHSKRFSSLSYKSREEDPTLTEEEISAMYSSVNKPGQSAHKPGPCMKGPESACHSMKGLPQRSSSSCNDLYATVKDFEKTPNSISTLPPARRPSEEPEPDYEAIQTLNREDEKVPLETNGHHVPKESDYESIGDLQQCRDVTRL
Protocol: (§1) Non-permeabilized cells were stained with the primary antibody clones in FACS Buffer [HBSS without Ca²⁺/Mg²⁺, FBS (3%), NaN3 (0.02%), and CaCl2 (2.5 mM)], then washed and stained with fluorescently conjugated secondary antibody (goat anti-mouse, Jackson ImmunoResearch, Cat. No. 115-006-003). Stained cells were then fixed in 1% paraformaldehyde. Splenocytes were pre-treated with Fc receptor block (Biolegend, Cat. No. 422301). PAG-GFP expressing cells were fixed in 1% paraformaldehyde. Events were recorded using FACSCanto (BD), and analyzed using FlowJo software (Ver. 10.8.1).

[2] = molecular target: T2, human PAG peptide (extracellular portion of human PAG) (human); assay: dose-response ELISA, immobilized human PAG, purified monoclonal antibody (FIG. 2F)
T2 construct: The immunogen was amino acids 1-16 of human PAG; also called human PAG-1 peptide; human PAG protein
T2 peptide: MGPAGSLLGSGQMQIT
Protocol: (§2) Primary ELISA was done for screening binding of hybridoma supernatants to human, murine, and cynomolgus PAG (2 μg/mL). Second ELISA for confirmation of binding of purified monoclonal antibodies to human PAG, 96-well half area high binding ELISA plates (Corning 3690) were coated 1 μg/mL of human PAG protein in 1×TBS at room temperature for 2 hours. The plate was washed with TBS containing 0.05% Tween 20 and blocked with 2% BSA in TBS for 1 hour at room temperature. After 1 hour, the plate was washed and diluted PAG antibodies in 1×TBS were dispensed to respective wells and incubated for 1 hour at room temperature. The plate was washed and incubated with peroxidase-Affinipure F(ab′)2 goat anti-mouse IgG (Jackson Immuno Research, Cat. No. 115-006-003) at 1:5000 dilution for 1 hour at room temperature. After the plate was washed, 3, 3′, 5, 5′ tetramethyl benzidine (TMB) substrate (Biolegend, Cat. No. 421101) was added to each well. The reaction was stopped by adding 2N H2SO4. Absorbance was measured on plate reader (Biotek Synergy H1) and results calculated by A=A450 nm-A570 nm.

[3] = molecular target: T3, PAG-GFP (full-length human PAG fused to GFP) expressed on cells (human, UniProt Q9NWQ8 1-432); assay: flow cytometry, non-permeabilized A549 cells stably expressing PAG-GFP (FIG. 7B; FIG. 2E)
T3 construct: Stably expressed in A549 cells (flow cytometry) and Jurkat T cells (microscopy); also called PAG-GFP (OE); not shown: GFP tag (peGFP-N1 / pCDH-PAG-GFP constructs)
T3 sequence: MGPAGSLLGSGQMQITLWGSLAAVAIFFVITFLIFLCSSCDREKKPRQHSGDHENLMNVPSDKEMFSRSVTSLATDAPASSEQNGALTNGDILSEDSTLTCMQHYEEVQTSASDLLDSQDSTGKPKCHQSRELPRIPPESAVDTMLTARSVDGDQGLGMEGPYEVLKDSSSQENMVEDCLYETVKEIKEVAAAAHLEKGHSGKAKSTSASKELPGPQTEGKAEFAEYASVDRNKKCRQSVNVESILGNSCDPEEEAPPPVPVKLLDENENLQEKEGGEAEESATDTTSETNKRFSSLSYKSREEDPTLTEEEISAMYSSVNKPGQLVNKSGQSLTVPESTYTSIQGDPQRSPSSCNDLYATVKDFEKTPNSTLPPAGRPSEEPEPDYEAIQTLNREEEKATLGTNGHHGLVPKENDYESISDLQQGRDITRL
Protocol: as §1

[4] = molecular target: T2, human PAG peptide (extracellular …); assay: ELISA on human PAG-1 peptide (FIG. 10)
[5] = molecular target: T2, human PAG peptide (extracellular …); assay: dose-response ELISA, immobilized human PAG, purified monoclonal antibodies (FIG. 2F)
Protocol: as §2

binding result [1]: binds
binding result [2]: binds
binding result [3]: binds
B1: anti-PAG antibody clone 7M16A (antibody, mouse IgG1, kappa, V domains shown)
VH: EVQLQQSGPELVKPGASVKMSCKASGYTFTSYVMHWVKQKPGQGLEWIGYIYPYNDGTKYNEKFKGKATLTSDKSSSTAYMELSSLTSEDSAVYYCARYKYGQGFAYWGQGTRVTVSA
VL: DIQMTQSPASLSVSVGETVTITCRASENIYSNLAWYQQKQGKSPQLLVYAATNLADGVPSRFSGSGSGTQYSLKINSLQSEDFGSYYCQHFWGTPWTFGGGTKLEIKR
notes: Mouse hybridoma monoclonal, tested as hybridoma supernatant and as purified antibody

binding result [4]: binds
B2: 7M-hu-1 (humanized version of 7M16A) (antibody, V domains shown)
VH: QVQLVQSGAEVKKPGASVKVSCKASGYTFTSYVMHWVRQAPGQGLEWMGYIYPYNDGTKYNEKFKGRVTMTRDTSTSTVYMELSSLRSEDTAVYYCARYKYGQGFAYWGQGTTVTVSS
VL: DIQMTQSPSSVSASVGDRVTITCRASENIYSNLAWYQQKPGKAPKLLIYAATNLADGVPSRFSGSGSGTDFTLTISSLQPEDFATYYCQHFWGTPWTFGGGTKLEIKR

binding result [5]: no binding
B3: anti-PAG antibody clone 8D04A (antibody, mouse IgG1, kappa, V domains shown)
VH: QIQLVQSGPELKKPGETVKISCKASGYIFTNYGMNWVKQAPGKGLKWMGWINPYTGEATYDDDFKGRFAFSLETSANTAYLQINNLKNEDTATYFCAKTGTTYWGQGTLVTVSA
VL: QIVLTQSPAIMSASPGEKVTMTCSASSSVSYMYWYQQKSGTSPKRWIYDTSKLASGVPARFSGSGSGTSYSLTINNMEAEDAATYYCQQWSSNPLTFGAGTKLELKR
notes: Mouse hybridoma monoclonal
